Experimental data: paper PMC2440032 (2008)

Target: T1, odorranalectin (Odorrana grahami)
T1 chain: YASPKCFRYPNGVLACT
Experiment: SPR; glycans on fetuin (lectin-type recognition of a glycoprotein); calcium not required

B1: fetuin (protein)
chain: IPLDPVAGYKEPACDDPDTEQAALAAVDYINKHLPRGYKHTLNQIDSVKVWPRRPTGEVYDIEIDTLETTCHVLDPTPLANCSVRQQTQHAVEGDCDIHVLKQDGQFSVLFTKCDSSPDSAEDVRKLCPDCPLLAPLNDSRVVHAVEVALATFNAESNGSYLQLVEISRAQFVPLPVSVSVEFAVAATDCIAKEVVDPTKCNLLAEKQYGFCKGSVIQKALGGEDVRVTCTLFQTQPVIPQPQPDGAEAEAPSAVPDAAGPTPSAAGPPVASVVVGPSVVAVPLPLHRAHYDLRHTFSGVASVESSSGEAFHVGKTPIVGQPSIPGGPVRLCPGRIRYFKI
Kd: 211 nM
